Test results from patent US20260056186A1 (JIANGSU HENGRUI PHARMACEUTICALS, published 2026).
Like-named read-outs stand apart in the source and are kept apart here.

What was measured:
[1] = target: recombinant human BAFF (R&D cat: 7537-BF-025/CF) (human, UniProt Q9Y275 134-285); test: cell-based or functional assay
[2] = target: T1, recombinant human APRIL (R&D cat: 5860-AP-010/CF) (human, UniProt O75888 105-250, limits assumed); test: cell-based or functional assay
T1 sequence (looked up): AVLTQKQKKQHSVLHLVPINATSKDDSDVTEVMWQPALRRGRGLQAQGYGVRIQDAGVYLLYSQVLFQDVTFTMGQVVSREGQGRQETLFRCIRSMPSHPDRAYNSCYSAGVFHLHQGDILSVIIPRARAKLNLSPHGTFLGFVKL

[3] = target: T2, BAFF (PeproTech, Cat: 310-13) (UniProt Q9Y275 134-285); test: ELISA, BAFF coated at 1 ug/mL, anti-human Fc-HRP, OD450
T2 sequence (Q9Y275 134-285 limits assumed): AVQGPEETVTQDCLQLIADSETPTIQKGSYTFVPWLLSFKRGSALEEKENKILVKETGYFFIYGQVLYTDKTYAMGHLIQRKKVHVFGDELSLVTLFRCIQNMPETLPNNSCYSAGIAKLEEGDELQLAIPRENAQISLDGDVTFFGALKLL
Protocol: (§1) The capabilities of B613301, B613302, and B613303, which are fusion proteins of anifrolumab and TACI-BCMA, to bind to BAFF and APRIL were assessed by ELISA as follows: [0548] BAFF (PeproTech, Cat: 310-13) or ARPIL (Acro Biosystems, Cat: APL-H52D1) was diluted to 1 μg/mL with PBS, and a 96-well plate (Costar, Cat: 3590) was coated with the dilution overnight at 4° C. The plate was washed with PBST and blocked with Blocking Buffer (PBST containing 1% BSA) at 37° C. for 1 h. The plate was tapped. The test antibodies were diluted with Blocking Buffer. Incubation was performed at 37° C. for 1.5 h. The plate was washed with PBST. An HRP-mouse anti-human Fc antibody (GenScript, Cat: A01854-200) was diluted with Blocking Buffer. Incubation was performed at 37° C. for 40 min. The plate was washed with PBST. 100 μL of TMB substrate solution (Biopanda, Cat: TMB-S-003) was added, and color development was performed at 37° C. for 3 min. 100 μL of ELISA stop solution (Solarbio, Cat: C1058) was added. OD450 was measured.

[4] = target: T2, BAFF (PeproTech, Cat: 310-13); test: as above; remark: listed apart in the source
Protocol: The capabilities of fusion proteins B606401, B637302, B746201, and B805201 to bind to BAFF and APRIL were assessed by ELISA as follows:
as §1, with “BAFF” for “The capabilities of B613301, B613302, and B613303, which are fusion proteins of anifrolumab and TACI-BCMA, to bind to BAFF and APRIL were assessed by ELISA as follows: [0548] BAFF”, “plate” for “plate (Costar, Cat: 3590)”

[5] = target: T3, APRIL (Acro Biosystems, Cat: APL-H52D1) (UniProt O75888 115-250, limits assumed); test: ELISA, APRIL coated at 1 ug/mL, anti-human Fc-HRP, OD450
T3 construct: also called ARPIL
T3 sequence (looked up): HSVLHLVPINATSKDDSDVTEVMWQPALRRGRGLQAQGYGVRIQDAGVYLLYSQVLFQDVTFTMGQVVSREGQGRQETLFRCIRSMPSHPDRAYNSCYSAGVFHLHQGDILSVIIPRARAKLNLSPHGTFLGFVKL
Protocol: as §1, with “TACI-BCMA” for “B613301, B613302, and B613303, which are”, “(B575701, B575702, B575703,” for “of anifrolumab”, “B575704)” for “TACI-BCMA,”, “follows:” for “follows: [0548]”
The capabilities of the 4 fusion proteins to bind to APRIL were all stronger than that of telitacicept, and their EC₅₀ values decreased to ¼ to ⅓ of that of telitacicept.

[6] = target: T3, APRIL (Acro Biosystems, Cat: APL-H52D1); test: as above; remark: listed apart in the source

recombinant human BAFF (R&D cat: 7537-BF-025/CF), sequence (Q9Y275 134-285 limits assumed): as the sequence (Q9Y275 134-285 limits assumed) above

B1: Telitacicept (RCT-18) (Fc fusion)
chain: SRVDQEERFPQGLWTGVAMRSCPEEQYWDPLLGTCMSCKTICNHQSQRTCAAFCRSLSCRKEQGKFYDHLLRDCISCASICGQHPKQCAYFCENKLRSPVNLPPELDKTHTCPPCPAPEAEGAPSVFLFPPKPKDTLMISRTPEVTCVVVDVSHEDPEVKFNWYVDGVEVHNAKTKPREEQYNSTYRVVSVLTVLHQDWLNGKEYKCKVSNKALPSSIEKTISKAKGQPREPQVYTLPPSRDELTKNQVSLTCLVKGFYPSDIAVEWESNGQPENNYKTTPPVLDSDGSFFLYSKLTVDKSRWQQGNVFSCSVMHEALHNHYTQKSLSLSPGK
notes: Positive control TACI-Fc; also called RC18
CD27+ CD38+ plasma cell count, mean value, BAFF + APRIL-induced (both ligands together), drug at 100 nM (IgG1: 2496) [1]: 510 cells | CD27+ CD38+ plasma cell count, mean value, BAFF + APRIL-induced (both ligands together), drug at 1000 nM (IgG1: 2279) [1]: 230 cells | CD27+ CD38+ plasma cell count, mean value, BAFF + APRIL-induced (both ligands together), drug at 10 nM (IgG1: 2687) [2]: 2450 cells | CD27+ CD38+ plasma cell count, mean value, BAFF + APRIL-induced (both ligands together), drug at 100 nM (IgG1: 2496) [2]: 510 cells | CD27+ CD38+ plasma cell count, mean value, BAFF + APRIL-induced (both ligands together), drug at 1000 nM (IgG1: 2279) [2]: 230 cells | EC50 [3]: 0.801 nM | EC50 [4]: 0.256 nM | EC50 [5]: 0.711 nM | Emax [5]: 2.62 | EC50 [6]: 0.536 nM | Emax [6]: 2.98
